Where two headings read alike, the source gives them in different places. Each block holds one molecule with its values, some of them ahead of it.
Experiments:
[1] = solubility of butyl-KLG in water; assay type: physicochemical
Text: The recrystallized butyl-KLG of this example had satisfactory proton and carbon NMR spectra and gave the predicted molecular weight by field desorption mass spectrometry.

[2] = assay type: physicochemical
Method: HPLC sample standards were prepared by dissolving KLG, MeKLG, ascorbic acid (ASA), and butyl-KLG to the appropriate concentration in water. Samples of these standards were placed in filled and sealed vials, stored at room temperature, and analyzed periodically. The HPLC was calibrated on the area response for standards that were injected onto the HPLC as soon as possible after the preparation of the standards.

[3] = enzyme screen for hydrolysis/methanolysis of butyl-KLG (HPLC of products and remaining substrate); assay type: biochemical; parameters: KLG formed / MeKLG formed / ASA formed / BuKLG (remaining substrate): unit: ppm
Method: (§1) Initial enzyme screens were carried out as follows. Enzyme (typically 10 mg), aqueous buffer (typically 860 microliters (ul) or 550 ul), aqueous 0.2M CaCl2 (10 ul), methanol (typically 90 ul or 400 ul), and an aqueous solution of substrate (typically 90 ul of butyl-KLG at a typical concentration of 110,000 ppm) were added to a 2 ml polypropylene centrifuge tube. The resulting solution was vortexed briefly and placed on a shaker bath at 300 rpm at 38° C. (typically for 18 hours or more). After incubation, samples were centrifuged at 14,000 G's (14,000 times gravity) for 20 minutes to remove enzyme, sampled (300 ul), and diluted to one milliliter with distilled water. If not analyzed by HPLC within the day, samples were frozen prior to analysis.
The data were reported in terms of parts per million of KLG, MeKLG, ascorbic acid (ASA) and butyl-KLG. […] Samples labeled as "no enzyme" were controls within a given run. The controls contained substrate but no enzyme and thus represented experimental and HPLC background data.

[4] = enzyme screen for methanolysis of KLG; assay type: biochemical; parameters: unit not given here; conditions: Table 14: 38° C., 19 Hours, 8.6% Methanol-Water, 0.2M MES Buffer
Method: as §1

[5] = Example 4: 38% methanol-water, MES, pH 5 to 5.8
[6] = Example 8: 8.6% methanol-water, MES, pH approximately 5.8 to 6.2
[7] = Table 3: 38° C., 16 Hours, 38% Methanol-Water, 0.1M MES Buffer
[8] = Table 4: 38° C., 47.5 Hours, 38% Methanol-Water, 0.1M MES Buffer
[9] = Table 7: 38° C., 19 Hours, 8.6% Methanol-Water, 0.1M MES
[10] = Table 8: 38° C., 21 Hours, 8.6% Methanol-Water, 0.2 M MES
[11] = Table 9: 38° C., 19 Hours, 8.6% Methanol-Water, 0.2M MES Buffer
[12] = Table 10: 38° C., 19 Hours, 38% Methanol-Water, 0.2M MES Buffer
[13] = Table 11: 38° C., ca. 19 Hours, 8.6% Methanol-Water, 0.2M Pyridine/Pyridinium Hydrochloride
[14] = Table 12: 38° C., ca. 19 Hours, 38% Methanol-Water, 0.2M pyridine buffer, pH 4.7 to 5.1
[15] = Table 13: 38° C., 20 Hours, 8.6% Methanol-Water, pH 2.3, 0.2M Phosphate Buffer
[16] = Example 9: 8.6% methanol-water, 0.2M MES

solubility [1]: ≥ 500 mg/mL
Amount Found ([2]; 50 ppm standard, 0 minutes): 50.6 ppm
Amount Found ([2]; 50 ppm standard, 400 minutes): 42.7 ppm
Amount Found ([2]; 50 ppm standard, 715 minutes): 38.2 ppm
Amount Found ([2]; 100 ppm standard, 0 minutes): 101 ppm
Amount Found ([2]; 100 ppm standard, 400 minutes): 100.1 ppm
Amount Found ([2]; 100 ppm standard, 715 minutes): 94.2 ppm
Amount Found ([2]; 500 ppm standard, 0 minutes): 506 ppm
Amount Found ([2]; 500 ppm standard, 400 minutes): 512 ppm
Amount Found ([2]; 500 ppm standard, 715 minutes): 499 ppm
Molecule: CCCCOC(=O)C(=O)[C@@H](O)[C@H](O)[C@@H](O)CO [butyl-KLG, butyl 2-keto-L-gulonate]

ASA formed [3, 7]: 3 ppm
KLG formed [3, 7]: 194 ppm
MeKLG formed [3, 7]: 642 ppm
ASA formed [3, 8]: 54 ppm
KLG formed [3, 8]: 3744 ppm
MeKLG formed [3, 8]: 1724 ppm
ASA formed [3, 9]: 135
KLG formed [3, 9]: 2860
MeKLG formed [3, 9]: 1233
ASA formed [3, 10]: 6 ppm
KLG formed [3, 10]: 4293 ppm
MeKLG formed [3, 10]: 1282 ppm
ASA formed [3, 11]: 215 ppm
KLG formed [3, 11]: 3485 ppm
MeKLG formed [3, 11]: 1235 ppm
ASA formed [3, 12]: 102 ppm
KLG formed [3, 12]: 1261 ppm
MeKLG formed [3, 12]: 1693 ppm
ASA formed [3, 13]: 67 ppm
KLG formed [3, 13]: 987 ppm
MeKLG formed [3, 13]: 1360 ppm
ASA formed [3, 14]: 7
KLG formed [3, 14]: 97
MeKLG formed [3, 14]: 447
ASA formed [3, 15]: 0
KLG formed [3, 15]: 387
MeKLG formed [3, 15]: 0
ASA formed [4]: 0
BuKLG [4]: 0
MeKLG formed [4]: 0
B1: ChiroCLEC-BL (Dry): crystalline crosslinked enzyme, a crystalline form of Subtilisin (a protease) (Altus Biologics) (protein, UniProt P00780 106-379, looked up)
Subtilisin Carlsberg: AQTVPYGIPLIKADKVQAQGFKGANVKVAVLDTGIQASHPDLNVVGGASFVAGEAYNTDGNGHGTHVAGTVAALDNTTGVLGVAPSVSLYAVKVLNSSGSGSYSGIVSGIEWATTNGMDVINMSLGGASGSTAMKQAVDNAYAKGVVVVAAAGNSGSSGNTNTIGYPAKYDSVIAVGAVDSNSNRASFSSVGAELEVMAPGAGVYSTYPTNTYATLNGTSMASPHVAGAAALILSKHPNLSASQVRNRLSSTATYLGSSFYYGKGLINVEAAAQ
modifications: crystalline cross-linked enzyme
levels of activity / conversion of butyl-KLG [3, 5]: particularly high levels of activity
levels of activity / conversion of butyl-KLG [3, 6]: particularly high levels of activity
BuKLG (remaining substrate) [3, 7]: 5123 ppm
BuKLG (remaining substrate) [3, 8]: 634 ppm
BuKLG (remaining substrate) [3, 9]: 4051
BuKLG (remaining substrate) [3, 10]: 1376 ppm
BuKLG (remaining substrate) [3, 11]: 3045 ppm
BuKLG (remaining substrate) [3, 12]: 5572 ppm
BuKLG (remaining substrate) [3, 13]: 5603 ppm
BuKLG (remaining substrate) [3, 14]: 10950
BuKLG (remaining substrate) [3, 15]: 10580
KLG (remaining substrate) [4]: 3270

selectivity (transesterification) [3, 16]: selectivity toward transesterification
ASA formed [3, 7]: 294 ppm
KLG formed [3, 7]: 446 ppm
MeKLG formed [3, 7]: 4377 ppm
ASA formed [3, 8]: 246 ppm
KLG formed [3, 8]: 705 ppm
MeKLG formed [3, 8]: 2720 ppm
ASA formed [3, 9]: 423
KLG formed [3, 9]: 2726
MeKLG formed [3, 9]: 3731
ASA formed [3, 10]: 717 ppm
KLG formed [3, 10]: 2373 ppm
MeKLG formed [3, 10]: 4167 ppm
ASA formed [3, 11]: 650 ppm
KLG formed [3, 11]: 1947 ppm
MeKLG formed [3, 11]: 4258 ppm
ASA formed [3, 12]: 173 ppm
KLG formed [3, 12]: 203 ppm
MeKLG formed [3, 12]: 1654 ppm
ASA formed [3, 13]: 37 ppm
KLG formed [3, 13]: 1613 ppm
MeKLG formed [3, 13]: 5787 ppm
ASA formed [3, 14]: 0
KLG formed [3, 14]: 47
MeKLG formed [3, 14]: 197
ASA formed [3, 15]: 0
KLG formed [3, 15]: 417
MeKLG formed [3, 15]: 93
ASA formed [4]: 0
BuKLG [4]: 0
MeKLG formed [4]: 0
B2: Pig Liver Esterase: pig liver esterase (a hydrolase) (protein)
chain: MWLLPLVLTSLASSATWAGQPASPPVVDTAQGRVLGKYVSLEGLAFTQPVAVFLGVPFAKPPLGSLRFAPPQPAEPWSFVKNTTSYPPMCCQDPVVEQMTSDLFTNFTGKERLTLEFSEDCLYLNIYTPADLTKRGRLPVMVWIHGGGLVLGGAPMYDGVVLAAHENFTVVVVAIQYRLGIWGFFSTGDEHSRGNWGHLDQVAALHWVQENIANFGGDPGSVTIFGESFTAGGESVSVLVLSPLAKNLFHRAISESGVALTVALVRKDMKAAAKQIAVLAGCKTTTSAVFTFVHCLRQKSEDELLDLTLKMKFLTLDFHGDQRESHPFLPTVVDGVLLPKMPEEILAEKDFTFNTVPYIVGINKQEFGWLLPTMMGFPLSEGKLDQKTATSLLWKSYPIANIPEELTPVATFTDKYLGGTDDPVKKKDLFLDLMGDVVFGVPSVTVARQHRDAGAPTYMYEFQYRPSFSSDKFTKPKTVIGDHGDEIFSVFGFPLLKGDAPEEEVSLSKTVMKFWANFARSGNPNGEGLPHWPFTMYDQEEGYLQIGVNTQAAKRLKGEEVAFWNDLLSKEAAKKPPKIKHAEL
levels of activity / conversion of butyl-KLG ([3]; Example 3: 38% methanol-water, MES, pH 4.8 to 5.8): particularly high levels of activity
levels of activity / conversion of butyl-KLG [3, 5]: particularly high levels of activity
levels of activity / conversion of butyl-KLG ([3]; Example 7: 8.6% methanol-water, MES, pH approximately 5 to 6): particularly high levels of activity
levels of activity / conversion of butyl-KLG [3, 6]: particularly high levels of activity
conversions to ascorbic acid [3, 16]: significant conversions to ascorbic acid
levels of activity / conversion of butyl-KLG ([3]; Example 9: 8.6% methanol-water, 0.2M MES, pH approximately 5.6 to 6): particularly high levels of activity
levels of activity / conversion of butyl-KLG ([3]; Example 10: 38% methanol-water, 0.2M MES, pH approximately 5.6 to 6.2): Decreased, although still appreciable, activity
levels of activity / conversion of butyl-KLG ([3]; Example 11: 8.6% methanol-water, pyridine buffer, pH approximately 4.9 to 5.3): particularly high levels of activity
BuKLG (remaining substrate) [3, 7]: 5711 ppm
BuKLG (remaining substrate) [3, 8]: 1368 ppm
BuKLG (remaining substrate) [3, 9]: 10
BuKLG (remaining substrate) [3, 10]: 83 ppm
BuKLG (remaining substrate) [3, 11]: 0 ppm
BuKLG (remaining substrate) [3, 12]: 7030 ppm
BuKLG (remaining substrate) [3, 13]: 390 ppm
BuKLG (remaining substrate) [3, 14]: 11750
BuKLG (remaining substrate) [3, 15]: 9500
KLG (remaining substrate) [4]: 4393
